The target of one assay is human fibrinogen (human) (UniProt P02671). The assay is described as follows: affinity blot, dilution series of antigen and fibrinogen.
Assay [1] deals with human prothrombin (human) (UniProt P00734). The assay is described as follows: affinity blot, dilution series of antigen and prothrombin.

For “87 kDa fibrinogen-binding protein (coagulase)”, the amount of protein detected with 10 ng/ml of fibrinogen in the assay with human fibrinogen (human) was 0.1 ng.
As for “60 kDa fibrinogen-binding protein (Eap, extracellular adherence protein)”, in assay [1], the amount of protein detected with 10 ng/ml of prothrombin stood at 0.1 ng. Moreover, in the assay with human fibrinogen (human), the amount of protein detected with 10 ng/ml of fibrinogen turned out to be 0.1 ng.

These data come from US20020173462A1.
